Data as given in PMC12494797, “Multi-domain O-GlcNAcase structures reveal allosteric regulatory mechanisms” (Nature Communications, 2025).
Values belong to the molecule of their own block, whether it stands above or below them.

Experiments:
OgHAT (OgAT) = target: T1, OgHAT (OgAT) (Oceanicola granulosus, UniProt Q2CEE2); test: SPR (Biacore […]), […] equilibrium-binding fit
T1 construct: gene OG2516_04134; amine-biotinylated, captured on streptavidin CM5 chip; not known to form dimers

[1] = target: His-tagged Trichoplax adhaerens OGA pHAT domain (TapHAT) (Trichoplax adhaerens); test: SEC; analytical; Superdex 200 Increase 10/300 GL; 500 μL of His-tagged pHAT at 1 mg/mL; 25 mM Tris pH 7.5, 150 mM NaCl, 0.5 mM TCEP; LMW calibration standards
[2] = target: the molecule itself; test: as above
[3] = target: the molecule itself; test: cryo-EM structure; 0.5 mg/mL hOGA or TaOGA vitrified at 4 °C; Titan Krios 300 kV; CryoSPARC

T1 sequence (Q2CEE2 whole entry): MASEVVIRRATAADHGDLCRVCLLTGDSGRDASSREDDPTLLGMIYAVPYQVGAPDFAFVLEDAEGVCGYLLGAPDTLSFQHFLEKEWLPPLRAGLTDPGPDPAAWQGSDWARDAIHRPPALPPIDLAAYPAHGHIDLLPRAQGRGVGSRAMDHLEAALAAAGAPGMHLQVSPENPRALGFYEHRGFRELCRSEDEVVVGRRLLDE

B1: His-tagged human OGA pHAT domain (hpHAT) (domain or fragment, UniProt O60502 710-916, looked up)
chain: PTSKVYTIRPYFPKDEASVYKICREMYDDGVGLPFQSQPDLIGDKLVGGLLSLSLDYCFVLEDEDGICGYALGTVDVTPFIKKCKISWIPFMQEKYTKPNGDKELSEAEKIMLSFHEEQEVLPETFLANFPSLIKMDIHKKVTDPSVAKSMMACLLSSLKANGSRGAFCEVRPDDKRILEFYSKLGCFEIAKMEGFPKDVVILGRSL
notes: pHAT domain of human O-GlcNAcase (OGA), residues 710-916; non-cleavable 6xHis-tag; also called human pHAT; isolated human pHAT domain; source: E. coli BL21(DE3) pLysS, purified (NiNTA, Superdex 75)
stoichiometry N [2]: 2

B2: Trichoplax adhaerens O-GlcNAcase (TaOGA), residues 5-723 (enzyme, UniProt A0A0D5X2Y8 5-723, looked up)
chain: KFLSGVVEGFYGKPWSFEQRKTLFSNMAKWGLNTYMYGPKDDEKHRAAWKQAYSKREGDSLRALIRAAEESGILFIYAISPGVDITYSSNRDMKFLKDKLDQIRNFGCNSFAIFFDDIDTVMCLQDQEEFESFAAAQVEVTNEIYKYLGMPANFLFCPTEYCAARADPNVKESKYLVTVGTGLHSDIHIMWTGPKVVSNKISVESILELQTVLRRKPVIWDNIHANDYEQGRLNLGPYDCRPAELMESLNGIFTNPNCEFELNYVPIRTFSLWCQSKRTRFNYDVEKALEQSIREWTEEFCIPRLPDGYLLEADTSDTNVNEYMDDEMQSDSRPISPANSMETDKDELTVKDIRLLVELFYLPQKHGKTANDLLAQAKWLKSNFRIAALSRKPNDTSEGSNLDEHNTDYIAAKEWDKRFSKFRSICQIIHQFGDRLMTCRNRVLLYEVYNYVADLCGILYHLISRIHSLANPEKLEKRSDSEQSSFRYGGFVGDIHRLIVSTDEYEESTLKNSDAYVIRPFMPSDEETLYDLCLKSCIENSNGDEIYKREPRIIGDRDLGAYIYLHPEYIYVLEDDRDKICGYLCGALDSKQFYERYESEWLTQIRDRHPQPENDIASWTPEEIVANSFYNFTPPTDVSVLYLSHLEARFDSSVPEKVIKRIIRFILEQLKAKGSYGASMLIDSWRTNLRRIFTSMGFVDLQEYSWMSEQKCMIAIKLM
notes: TaOGA (TaOGA54), Trichoplax adhaerens, residues 5-723; the results call it full-length; also called TaOGA54; full-length TaOGA; source: E. coli BL21(DE3) pLysS, purified (Ni-NTA, PreScission cleavage, Superdex 200); not shown: His6, N-terminal, cleaved
binding result [3]: binds

Results, then the molecule that gave them:

Kd (OgHAT (OgAT)): 5 mM
Molecule: CC(=O)SCCNC(=O)CCNC(=O)[C@H](O)C(C)(C)COP(=O)(O)OP(=O)(O)OC[C@H]1O[C@@H](n2cnc3c(N)ncnc32)[C@H](O)[C@@H]1OP(=O)(O)O [acetyl-CoA]

stoichiometry N [1]: 2
Molecule: His-tagged Trichoplax adhaerens OGA pHAT domain (TapHAT) (domain or fragment)
